Results: patent publication CN115594758A (NANJING JINGZHUN BIOTECHNOLOGY CO LTD, dated 2023)

Biological target: SARS-CoV-2假病毒 (病毒包膜糖蛋白 on MLV pseudovirus) (SARS-CoV-2, UniProt P0DTC2 14-1273)
Experiment: cell-based or functional assay

B1: 纳米抗体SA4 (VHH)
VHH: QVQLQESGGGLVQPGGSLRLSCAASGSFFEFGTVGWFRQAPGKQRELVSRITGNDHRYYADSVKGRFTISRDNDETTVYLQMDSLKPEDTAIYHCNILEGQRWSNYWGQGTQVTVSH
  假病毒中和实验 IC50 (GFP by flow cytometry, VeroE6-hACE2 cells): 12.7 nM
